Key:
MORT-1 = target: T1, MORT-1 (Homo sapiens, UniProt Q13158, G32V); assay: Two-hybrid test (FIG. 1), binding to full-length MORT-1; parameters: expressed in transfected cells; host or cells: SFY526 yeast
T1 sequence (Q13158 with tags, fused parts or gaps G32V): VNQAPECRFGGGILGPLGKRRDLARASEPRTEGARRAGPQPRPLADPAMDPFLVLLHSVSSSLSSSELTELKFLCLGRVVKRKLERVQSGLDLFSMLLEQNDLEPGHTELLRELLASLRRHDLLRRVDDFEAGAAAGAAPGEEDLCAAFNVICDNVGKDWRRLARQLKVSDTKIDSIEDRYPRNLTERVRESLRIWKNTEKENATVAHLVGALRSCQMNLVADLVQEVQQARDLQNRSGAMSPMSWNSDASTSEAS
Description: (§1) To isolate proteins interacting with the intracellular domain of the FAS-R, the yeast two-hybrid system was used (Fields and Song, 1989). […] In this system, the genes for the candidate interacting proteins are cloned into separate expression vectors. In one expression vector, the sequence of the one candidate protein is cloned in phase with the sequence of the GAL4 DNA-binding domain to generate a hybrid protein with the GAL4 DNA-binding-domain, and in the other vector, the sequence of the second candidate protein is cloned in phase with the sequence of the GAL4 activation domain to generate a hybrid protein with the GAL4-activation domain. The two hybrid vectors are then co-transformed into a yeast host strain having a lacZ or HIS3 reporter gene under the control of upstream GAL4 binding sites. Only those transformed host cells (cotransformants) in which the two hybrid proteins are expressed and are capable of interacting with each other, will be capable of expressing the reporter gene. In the case of the lacZ reporter gene, host cells expressing this gene will become blue in color when X-gal is added to the cultures.
(b) retransforming the plasmid DNA and original FAS-IC hybrid plasmid and control plasmids described in (a) into yeast host cells of strain SFY526 and determining the LACZ^+ activity (effectivity of β-gal formation, i.e., blue color formation).
In FIG. 1, there is depicted the interaction of the proteins encoded by the Gal4 DNA binding domain and activation-domain constructs (pGBT9 and pGAD-GH) within transfected SFY526 yeasts as assessed by β-galactosidase expression filter assay. The DNA-binding-domain constructs included four constructs of the human Fas-IC, four constructs of the mouse Fas-IC including two full-length constructs having […] or Ile to Ala replacement mutations at position 225 (I225N and I225A, respectively), and three MORT-1 constructs, all of which are shown schematically on the left hand side of FIG. 1. […]

[1] = test system: FAS-R mediated cell death in HeLa cells; assay: Anti-FAS-R antibody (CH-11) induced death of HeLa cells co-expressing FAS-R, neutral-red uptake; type: cell-based; details: co-expression with human FAS-R in HeLa HtTA-1; CH-11 antibody plus 10 μg/ml cycloheximide
Description: In another set of experiments to analyze the region of the MORT-1 protein involved in the binding to the FAS-IC, the following proteins were expressed transiently in HeLa cells that contain a tetracycline-controlled transactivator (HtTA-1), using a tetracycline-controlled expression vector (pUHD10-3): Human FAS-R alone; Human FAS-R as well as the N-terminal part of MORT-1 (amino acids 1-117, the “MORT-1 head”); Human FAS-R as well as the C-terminal part of MORT-1, which contains its ‘death domain’ homology region (amino acids 130-245, the “MORT-1 DD”); FLAG-55.11 (amino acids 309-900 of protein 55.11 fused at the N-terminus to the FLAG octapeptide, the protein 55.11 being a p55-IC-specific binding protein. Twelve hours after transfection, the cells were trypsinized and re-seeded at a concentration of 30,000 cells/well. After 24 hrs further incubation, the cells were treated for 6 hrs with a monoclonal antibody against the extracellular domain of FAS-R (monoclonal antibody CH-11, Oncor, Gaithersburg, Md., USA) at various concentrations (0.001-10 μg/ml monoclonal antibody), in the presence of 10 μg/ml cycloheximide. Cell viability was then determined by the neutral-red uptake assay and the results were presented in terms of % viable cells as compared to cells that had been incubated with cycloheximide alone (in the absence of anti-FAS-R monoclonal antibody CH-11). […]

FAS-IC = target: T2, FAS-IC (Homo sapiens, UniProt P25445); assay: Two-hybrid test (FIG. 1), binding of MORT-1 fragments to FAS-IC
T2 construct: the FAS-IC extends-from amino acid residues 175-319 of the intact FAS-R; expressed in transfected cells; host or cells: SFY526 yeast
T2 sequence (P25445 191-335): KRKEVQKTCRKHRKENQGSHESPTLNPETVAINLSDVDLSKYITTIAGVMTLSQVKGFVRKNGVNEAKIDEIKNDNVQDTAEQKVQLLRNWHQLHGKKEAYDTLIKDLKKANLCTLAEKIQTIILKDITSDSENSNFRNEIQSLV
Description: as §1, with “cultures. […]” for “cultures.”
In FIG. 1, there is depicted the interaction of the proteins encoded by the Gal4 DNA binding domain and activation-domain constructs (pGBT9 and pGAD-GH) within transfected SFY526 yeasts as assessed by β-galactosidase expression filter assay. […]

[2] = test system: human embryonic kidney 293-EBNA cells; assay: Cell death on overexpression of MACH isoforms in 293-EBNA cells; type: cell-based; details: β-galactosidase-expressing cells with apoptopic morphology, 20 h after transfection
Method: To explore the involvement of MACH in cell-death induction, the effect of overexpression of various MACH isoforms on cell viability was examined. The test was performed by transfecting MACH expression vectors together with a β-galactosidase expression vector as a transfection marker into human embryonic kidney 293-EBNA cells and breast carcinoma MCF7 cells.
(§2) In brief, 293-EBNA cells, MCF7 human breast carcinoma cells and HeLa HtTA-1 cells were grown in Dulbecco's modified Eagle's minimal essential medium supplemented with 10% fetal calf serum, nonessential amino acids, 100 U/ml penicillin and 100 μg/ml streptomycin. Cell tissue culture dishes (5×10^5 293-EBNA cells, 3×10^5 s MCF7 cells or 3×10^5 HeLa cells in 6-cm dishes) were transiently transfected, using the calcium phosphate precipitation method, with the cDNAs of the indicated proteins together with the β-galactosidase expression vector. In the experiments presented in FIGS. 14A-D and 15, each dish was transfected with 3.5 μg of the indicated MACH construct and 1.5 μg of pSV-β-gal. In the experiments presented in FIGS. 16A-D and 17-19, each dish was transfected with 2.5 μg of the indicated MACH or MORT1 construct (or, as control, empty vector) and 1.5 μg of pSV-β-gal. The cells were rinsed 6 to 10 h after transfection. The 293-EBNA and MCF7 cells were incubated for a further 18 h without additional treatment. The HeLa cells were incubated for 26 h after transfection and-then for 5 h in the presence of either anti-Fas.APO1 antibody (CH11, 0.5 μg/ml) or TNF (100 ng/ml), together with cycloheximide (10 μg/ml). The extent of cell death at the end of the incubation periods was assessed by determination of β-galactosidase expression, as described by Kumar et al, 1994.
In particular, FIGS. 14A-D show the morphology of human embryonic kidney 293-EBNA cells transiently expressing the indicated MACH isoforms. The arrows (FIG. 14B) point to apoptopic cells. Photographs were taken 26 h after transfection. […] Data are from three independent experiments with the 293-EBNA cells and two independent experiments with the MCF7 cells.

[3] = test system: TNF-induced death of HeLa cells; assay: Death of HeLa cells induced by TNF and cycloheximide; type: cell-based, human; details: TNF 100 ng/ml, cycloheximide 10 μg/ml
Method: as §2, with “1994. […]” for “1994.”

[4] = test system: Fas/APO1-induced death of HeLa cells; assay: Death of HeLa cells expressing Fas/APO1 induced by anti-Fas/APO1 antibody and cycloheximide; type: cell-based, human; details: HeLa cells transiently expressing Fas/APO1, CH11 0.5 μg/ml, cycloheximide 10 μg/ml
Method: as §2
The HeLa cells were made responsive to Fas/APO1 by transient expression of this receptor. […] These protective effects indicate that MACHα is a necessary component of both the Fas/APO1- and the p55-R-induced signaling cascades for cell death.
(§3) In particular, FIGS. 16A-D show morphology of 293-EBNA cells in which cell death was induced by transient expression of a chimera comprised of the extracellular domain of the p55-R (amino acids 1-168) fused to the transmembrane and intracellular domains of Fas/APO1 (amino acids 153-319) (p55-Fas chimera) (FIGS. 16A and 16B), or by expression of the p55-R (FIGS. 16C and 16D), and of cells that were protected from these cytotoxic effects by their simultaneous transfection with MACHα1 (C360S) (FIGS. 16B and 16D). Photographs were taken 26 h after transfection. FIG. 17 illustrates the quantification of death induced in 293-EBNA cells by their transfection with p55-Fas chimera or with p55-R, together with an empty vector, a MORT1 deletion mutant lacking the MACH-binding region (MORT1 (92-208)), or MACHα molecules containing a nonfunctional CED3/ICE region. […] Data are from at least two independent experiments and are expressed as in FIGS. 14A-F and 15.

[5] = test system: p55-R-induced cytotoxicity in 293-EBNA cells; assay: Death of 293-EBNA cells induced by over-expression of p55-R; type: cell-based, human; details: co-transfection
Method: as §2, with “The HeLa cells were incubated for 26 h after transfection and-then for 5 h in the presence of either anti-Fas.APO1 antibody (CH11, 0.5 μg/ml) or TNF (100 ng/ml), together with cycloheximide (10 μg/ml).” left out, “1994. […]” for “1994.”
as §3, with “Photographs were taken 26 h after transfection.” left out

[6] = test system: Fas/APO1 cytotoxicity (p55-Fas chimera) in 293-EBNA cells; type: cell-based, human; details: co-transfection
Method: as §2, with “The HeLa cells were incubated for 26 h after transfection and-then for 5 h in the presence of either anti-Fas.APO1 antibody (CH11, 0.5 μg/ml) or TNF (100 ng/ml), together with cycloheximide (10 μg/ml).” left out, “1994. […]” for “1994.”
as §3, with “Photographs were taken 26 h after transfection.” left out

B1: fragment corresponding to residues 130-245: C-terminal part of MORT-1 containing its death domain homology region, amino acids 130-245 (protein)
chain: FEAGAAAGAAPGEEDLCAAFNVICDNVGKDWRRLARQLKVSDTKIDSIEDRYPRNLTERVRESLRIWKNTEKENATVAHLVGALRSCQMNLVADLVQEVQQARDLQNRSGAMSPMS
MORT-1
  binding to full-length MORT-1 in two-hybrid test: does not bind
[1]
  effect on FAS-induced (FAS-R mediated) cell death: strongly interferes
FAS-IC
  binding to FAS-IC / FAS-R in two-hybrid test: binds

B2: MACHα2: MACH isoform, cDNA SEQ ID NO: 17, amino acid SEQ ID NO: 18 (protein)
chain: MDFSRNLYDIGEQLDSEDLASLKFLSLDYIPQRKQEPIKDALMLFQRLQEKRMLEESNLSFLKELLFRINRLDLLITYLNTRKEEMERELQTPGRAQISAYRVMLYQISEEVSRSELRSFKFLLQEEISKCKLDDDMNLLDIFIEMEKRVILGEGKLDILKRVCAQINKSLLKIINDYEEFSKGEELCGVMTISDSPREQDSESQTLDKVYQMKSKPRGYCLIINNHNFAKAREKVPKLHSIRDRNGTHLDAGALTTTFEELHFEIKPHDDCTVEQIYEILKIYQLMDHSNMDCFICCILSHGDKGIIYGTDGQEAPIYELTSQFTGLKCPSLAGKPKVFFIQACQGDNYQKGIPVETDSEEQPYLEMDLSSPQTRYIPDEADFLLGMATVNNCVSYRNPAEGTWYIQSLCQSLRERCPRGDDILTILTEVNYEVSNKDDKKNMGKQMPQPTFTLRKKLVFPSD
[2]
  cell death of transfected 293-EBNA cells: massive cell death

B3: MORT1 (92-208) (protein, UniProt Q13158 92-208, looked up, fragment)
chain: PGEEDLCAAFNVICDNVGKDWRRLARQLKVSDTKIDSIEDRYPRNLTERVRESLRIWKNTEKENATVAHLVGALRSCQMNLVADLVQEVQQARDLQNRSGAMSPMSWNSDASTSEAS
[3]
  protection against death induced by TNF and cycloheximide: protection was also observed
[4]
  protection against death induced by anti-Fas/APO1 antibody and cycloheximide: protection was also observed
[4]; listed as MORT1DD (92-208)
  protection against death induced by anti-Fas/APO1 antibody and cycloheximide: prevention
[5]
  protection against p55-R-induced cytotoxicity: protection was also observed
[6]
  protection against Fas/APO1 cytotoxicity (p55-Fas chimera): protection was also observed
